{"source": "patent US20110065198A1", "about": "(NEXIGEN, published 2011)", "binders": {"B1": {"name": "in vitro translated HERC4 (other, human, UniProt Q5GLZ8 915-1057, looked up)", "chain": "AFHAGFHKVCGGKVLLLFQPNELQAMVIGNTNYDWKELEKNTEYKGEYWAEHPTIKIFWEVFHELPLEKKKQFLLFLTGSDRIPILGMKSLKLVIQSTGGGEEYLPVSHTCFNLLDLPKYTEKETLRSKLIQAIDHNEGFSLI"}, "B2": {"name": "in vitro translated PTGES3 (other)", "chain": "RRDYVFIEFCVEDSKDVNVNFEKSKLTFSCLGGSDNFKHLNEIDLFHCIDPNDSKHKRTDRSILCCLRKGESGQSWPRLTKERAKLNWLSVDFNNWKDWEDDSDEDMSNFDRFSEMMNNMGGDEDVDLPEVDGADDDSQDSDDEKMPDLE"}, "B3": {"name": "in vitro translated TPT1 (other, human, UniProt P13693 1-172, looked up)", "chain": "MIIYRDLISHDEMFSDIYKIREIADGLCLEVEGKMVSRTEGNIDDSLIGGNASAEGPEGEGTESTVITGVDIVMNHHLQETSFTKEAYKKYIKDYMKSIKGKLEEQRPERVKPFMTGAAEQIKHILANFKNYQFFIGENMNPDGMVALLDYREDGVTPYMIFFKDGLEMEKC", "notes": "also called TCTP"}}, "key": {"[1]": {"target": "T1, glutathione-S-transferase (GST) alone, not fused to Vif (UniProt P08515 1-218 = GST)", "T1 sequence (P08515 whole entry, the tested form may be a part)": "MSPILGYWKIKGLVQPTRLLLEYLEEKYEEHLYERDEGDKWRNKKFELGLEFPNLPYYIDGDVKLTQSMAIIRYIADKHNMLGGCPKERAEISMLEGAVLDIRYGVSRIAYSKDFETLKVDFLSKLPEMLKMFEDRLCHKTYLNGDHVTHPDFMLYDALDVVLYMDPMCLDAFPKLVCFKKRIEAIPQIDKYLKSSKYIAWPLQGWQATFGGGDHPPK", "assay": "GST pull-down, 35S in vitro translated protein, SDS-PAGE autoradiography, FIG. 3b lane 12"}, "[2]": {"target": "T1, glutathione-S-transferase (GST) alone, …", "assay": "GST pull-down, 35S in vitro translated protein, SDS-PAGE autoradiography, FIG. 3c lane 15", "source_text": "(§1) Lanes 7 to 12 represent the respective pull-down results of the afore-mentioned radioactively labelled in vitro translated proteins by GST-Vif glutathione sepharose beads. […] Lanes 13 to 18 represent the control for the specificity of the GST pulldown experiment, i.e. for the binding specificity of the in vitro translated proteins to Vif. Therefore, lanes 13 to 18 in particular represent the results of GST pull-down, wherein GST was used alone, i.e. without being fused to Vif.\n(§2) The binding of interaction candidates to Vif was performed with shaking for one hour at room temperature in binding buffer containing 20 mM NaCl, 20 mMTris pH 8.0, 0.5% NP40 and bovine serum albumine 100 μg/ml. After incubation beads were pelleted by spinning at 500 g for 2 min. and 4 washing steps with 1 ml washing buffer (binding buffer without serum albumin) were followed."}, "[3]": {"target": "T1, glutathione-S-transferase (GST) alone, …", "assay": "GST pull-down, 35S in vitro translated protein, SDS-PAGE autoradiography, FIG. 3c lane 14", "source_text": "as §1, §2"}, "[4]": {"target": "T1, glutathione-S-transferase (GST) alone, …", "assay": "GST pull-down, 35S in vitro translated protein, SDS-PAGE autoradiography, FIG. 3b lane 13"}}, "data": [{"binder": "B1", "values": [{"measurement": "binding result", "setting": "[1]", "result": "no binding"}]}, {"binder": "B2", "values": [{"measurement": "binding result", "setting": "[2]", "result": "no binding"}]}, {"binder": "B3", "values": [{"measurement": "binding result", "setting": "[3]", "result": "no binding"}]}, {"binder": "VLIVCVPNPPIDEKNATMPVTMLIRVKTSEDADELHKILLEKKDA (other)", "note": "[in vitro translated NUP50]", "values": [{"measurement": "binding result", "setting": "[4]", "result": "no binding"}]}]}
